# Reference: PMC7835349 (Communications Biology, 2021)
# Where “and” joins values, the source holds several entries; their conditions need not be identical. Equal entries are not always repeated.
# Experiments:
# [1] = system: luciferase-tagged Ri-1 tumour cells; assay: Disseminated luciferase-tagged Ri-1 DLBCL model (bioluminescence); type: in vivo, C.B-17 SCID mouse
# Experimental: Ten million luciferase-tagged Ri-1 tumour cells were injected intravenously in the tail vein of C.B.−17 SCID female mice in a volume of 0.1 ml. Tumour burden (determined by Xenogen IVIS imaging), body weight and health condition were recorded twice weekly for the duration of the study. For Xenogen imaging, mice received an intraperitoneal administration of 150 mg/kg D- Luciferin 10 to 15 minutes prior to imaging. Imaging was performed under isoflurane anaesthesia and data analyzed using Living Image software (Xenogen). Statistical significance was evaluated using non-parametric, unpaired, two-tailed t-test.
# telemetered dogs = conditions: dog, in vivo, 60 mg/kg
# [2] = Body weight and tolerability in RS4;11 xenograft mice; type: in vivo, C.B-17 SCID mouse; conditions: for Percentage Body Weight Change post Dosing: single animals
# Experimental: Female C.B.−17 SCID mice were purchased from Charles River Laboratories. Mice were 5–8 weeks old at the time of tumour implantation. All xenograft studies were conducted at our Association for the Assessment and Accreditation of Laboratory Animal Care accredited facility in Waltham, MA in accordance with ethical regulations described in the guidelines established by the internal Institutional Animal Care and Use Committee. The dendrimer conjugates were formulated in citrate/phosphate buffer pH 5.0, diluted 1:10 with 5% glucose containing 1% w/v Kolliphor HS15, and AZD4320 was formulated in 30% HP-β-CD and dosed as a weekly intravenous (IV) administration at a volume of 5 ml/kg at the indicated doses. Five million RS4;11, five million SUDHL-4 or five million OCI-LY-10 cells were injected subcutaneously in the right flank of mice in a volume of 0.1 ml. Tumour volumes (measured by caliper), animal body weight, and tumor condition were recorded twice weekly for the duration of the study. The tumour volume was calculated (taking length to be the longest diameter across the tumour and width to be the corresponding perpendicular diameter) using the formula: length (mm) x width (mm)^2/0.52. For efficacy studies, mice were randomized based on tumour volumes using stratified sampling and enrolled into control and treatment groups. Tumour growth inhibition from the start of treatment was quantified by measuring the difference in tumour volume between control and treated groups. Survival analysis was evaluated using Mantel-Cox test. Tumours were also taken for bioanalysis. […]
# Supplementary Figure 13. Percent total body weight change in mouse RS4;11 xenograft model (n=6). Percent change in body weight of mice measured twice weekly after start of treatment with various doses of AZD0466. […]
substance,measurement,setting,value
AZD4320-MIDA-PEG2100 [AZD0466],Raw bioluminescence counts in individual animals,"[1]; AZD0466 34 mg/kg (10mg/kg AZD4320), day 1",1011000 counts and 1455000 counts and 962000 counts and 1223000 counts and 856300 counts
same,Raw bioluminescence counts in individual animals,"[1]; AZD0466 34 mg/kg (10mg/kg AZD4320), day 4",1131000 counts and 1477000 counts and 863000 counts and 1453000 counts and 1099000 counts
same,Raw bioluminescence counts in individual animals,"[1]; AZD0466 34 mg/kg (10mg/kg AZD4320), day 8",2077000 counts and 2641000 counts and 963600 counts and 3688000 counts and 1848000 counts
same,Raw bioluminescence counts in individual animals,"[1]; AZD0466 34 mg/kg (10mg/kg AZD4320), day 11",2663000 counts and 3475000 counts and 794700 counts and 3942000 counts and 2369000 counts
same,Raw bioluminescence counts in individual animals,"[1]; AZD0466 34 mg/kg (10mg/kg AZD4320), day 15",3909000 counts and 5355000 counts and 1268000 counts and 8178000 counts and 3745000 counts
same,Raw bioluminescence counts in individual animals,"[1]; AZD0466 103 mg/kg (30mg/kg AZD4320), day 1",1023000 counts and 885100 counts and 876200 counts and 2011000 counts and 1243000 counts
same,Raw bioluminescence counts in individual animals,"[1]; AZD0466 103 mg/kg (30mg/kg AZD4320), day 4",712200 counts and 758000 counts and 861600 counts and 963300 counts and 1088000 counts
same,Raw bioluminescence counts in individual animals,"[1]; AZD0466 103 mg/kg (30mg/kg AZD4320), day 8",888700 counts and 911000 counts and 1080000 counts and 921400 counts and 1303000 counts
same,Raw bioluminescence counts in individual animals,"[1]; AZD0466 103 mg/kg (30mg/kg AZD4320), day 11",687900 counts and 678400 counts and 868400 counts and 651900 counts and 817800 counts
same,Raw bioluminescence counts in individual animals,"[1]; AZD0466 103 mg/kg (30mg/kg AZD4320), day 15",1023000 counts and 956600 counts and 1075000 counts and 787100 counts and 1030000 counts
same,Raw bioluminescence counts in individual animals,"[1]; AZD0466 340 mg/kg (100mg/kg AZD4320), day 1",851500 counts and 1286000 counts and 895800 counts and 1120000 counts and 1558000 counts
same,Raw bioluminescence counts in individual animals,"[1]; AZD0466 340 mg/kg (100mg/kg AZD4320), day 4",675300 counts and 732000 counts and 775100 counts and 773400 counts and 665700 counts
same,Raw bioluminescence counts in individual animals,"[1]; AZD0466 340 mg/kg (100mg/kg AZD4320), day 8",696900 counts and 758300 counts and 613100 counts and 757700 counts and 754200 counts
same,Raw bioluminescence counts in individual animals,"[1]; AZD0466 340 mg/kg (100mg/kg AZD4320), day 11",628500 counts and 817700 counts and 761500 counts and 744200 counts and 883400 counts
same,Raw bioluminescence counts in individual animals,"[1]; AZD0466 340 mg/kg (100mg/kg AZD4320), day 15",1033000 counts and 1121000 counts and 987400 counts and 873700 counts and 861800 counts
same,anti-tumour activity,"[1]; disseminated Ri-1, once weekly IV",dose-dependent anti-tumour activity
same,adverse clinical signs,telemetered dogs,not associated with any adverse clinical signs
same,Percentage Body Weight Change post Dosing,"[2]; 10 mg/kg (3mg/kg AZD4320), day 41 post implant",0%
same,Percentage Body Weight Change post Dosing,"[2]; 10 mg/kg (3mg/kg AZD4320), day 44 post implant",-1.896% and 0% and -3.365% and -4.5045% and -0.9756% and 0.4739%
same,Percentage Body Weight Change post Dosing,"[2]; 10 mg/kg (3mg/kg AZD4320), day 48 post implant",2.37% and 2.899% and -4.327% and 0% (2×) and -0.9479%
same,Percentage Body Weight Change post Dosing,"[2]; 10 mg/kg (3mg/kg AZD4320), day 51 post implant",-2.8436% and -2.415% and -3.365% and -4.054% and -0.9756% and -3.318%
same,Percentage Body Weight Change post Dosing,"[2]; 10 mg/kg (3mg/kg AZD4320), day 55 post implant",1.4218% and 2.415% and -1.923% and 0.9009% and 1.951% and 0.4739%
same,Percentage Body Weight Change post Dosing,"[2]; 10 mg/kg (3mg/kg AZD4320), day 58 post implant",-0.9479% and -0.4831% and -2.885% and 0% and 2.927% and 0.4739%
same,Percentage Body Weight Change post Dosing,"[2]; 10 mg/kg (3mg/kg AZD4320), day 63 post implant",5.6872% and 4.831% and -0.9615% and 3.6036% and 7.317% and 2.8436%
same,Percentage Body Weight Change post Dosing,"[2]; 10 mg/kg (3mg/kg AZD4320), day 66 post implant",4.2654% and 2.415% and -4.327% and 0.4505% and 3.415% and -1.4218%
same,Percentage Body Weight Change post Dosing,"[2]; 10 mg/kg (3mg/kg AZD4320), day 70 post implant",2.8436% and 1.449% and -1.923% and 3.153% and 5.366% and 0.9479%
same,Percentage Body Weight Change post Dosing,"[2]; 10 mg/kg (3mg/kg AZD4320), day 73 post implant",3.318% and 7.246% and -1.442% and 1.8018% and 6.829% and 0%
same,Percentage Body Weight Change post Dosing,"[2]; 10 mg/kg (3mg/kg AZD4320), day 77 post implant",3.791% and 4.348% and -2.404% and 2.7027% and 5.854% and 0%
same,Percentage Body Weight Change post Dosing,"[2]; 10 mg/kg (3mg/kg AZD4320), day 80 post implant",7.109% and 6.763% and 2.404% and 9.268% and 2.8436%
same,Percentage Body Weight Change post Dosing,"[2]; 10 mg/kg (3mg/kg AZD4320), day 83 post implant",6.635% and 1.932% and 1.923% and 8.78% and 1.4218%
same,Percentage Body Weight Change post Dosing,"[2]; 34 mg/kg (10mg/kg AZD4320), day 41 post implant",0%
same,Percentage Body Weight Change post Dosing,"[2]; 34 mg/kg (10mg/kg AZD4320), day 44 post implant",-0.9346% and -3.922% and -3.6036% and -0.5155% and -2.427% and -2.913%
same,Percentage Body Weight Change post Dosing,"[2]; 34 mg/kg (10mg/kg AZD4320), day 48 post implant",-2.336% and -1.471% and -2.252% and -1.546% and 0% and -1.456%
same,Percentage Body Weight Change post Dosing,"[2]; 34 mg/kg (10mg/kg AZD4320), day 51 post implant",-2.804% and -6.373% and -5.405% and -1.031% and -4.369% and -1.942%
same,Percentage Body Weight Change post Dosing,"[2]; 34 mg/kg (10mg/kg AZD4320), day 55 post implant",-1.869% and -0.4902% and -2.252% and 1.031% and -1.942% and -0.9709%
same,Percentage Body Weight Change post Dosing,"[2]; 34 mg/kg (10mg/kg AZD4320), day 58 post implant",-1.402% and -3.431% and -3.153% and 1.546% and -2.913% and -0.9709%
same,Percentage Body Weight Change post Dosing,"[2]; 34 mg/kg (10mg/kg AZD4320), day 63 post implant",2.336% and -2.451% and 0% and 5.361% and 1.942% and 6.311%
same,Percentage Body Weight Change post Dosing,"[2]; 34 mg/kg (10mg/kg AZD4320), day 66 post implant",-2.336% and -4.412% and 0% and 1.031% and 1.456% and 6.796%
same,Percentage Body Weight Change post Dosing,"[2]; 34 mg/kg (10mg/kg AZD4320), day 70 post implant",-0.9346% and -5.392% and 0.4505% and 2.062% and 2.913% and 2.427%
same,Percentage Body Weight Change post Dosing,"[2]; 34 mg/kg (10mg/kg AZD4320), day 73 post implant",2.336% and -3.431% and 2.252% and 1.546% and 3.883% and 3.398%
same,Percentage Body Weight Change post Dosing,"[2]; 34 mg/kg (10mg/kg AZD4320), day 77 post implant",3.271% and -3.922% and 1.351% and 3.093% and 2.913% and 2.427%
same,Percentage Body Weight Change post Dosing,"[2]; 34 mg/kg (10mg/kg AZD4320), day 80 post implant",4.6729% and -1.471% and 7.207% and 5.155% and 3.883% and 6.796%
same,Percentage Body Weight Change post Dosing,"[2]; 34 mg/kg (10mg/kg AZD4320), day 83 post implant",4.206% and -1.961% and 7.658% and 4.639% and 4.854% and 9.709%
same,Percentage Body Weight Change post Dosing,"[2]; 103 mg/kg (30mg/kg AZD4320), day 41 post implant",0%
same,Percentage Body Weight Change post Dosing,"[2]; 103 mg/kg (30mg/kg AZD4320), day 44 post implant",-2.415% and -9.211% and -6.161% and -5.804% and 0% and -2%
same,Percentage Body Weight Change post Dosing,"[2]; 103 mg/kg (30mg/kg AZD4320), day 48 post implant",-0.9662% and -3.509% and -6.161% and -4.464% and -1.415% and -2.5%
same,Percentage Body Weight Change post Dosing,"[2]; 103 mg/kg (30mg/kg AZD4320), day 51 post implant",-1.449% and -4.386% and -7.109% and -5.357% and -2.83% and -4%
same,Percentage Body Weight Change post Dosing,"[2]; 103 mg/kg (30mg/kg AZD4320), day 55 post implant",0.4831% and -0.4386% and -5.213% and -3.125% and 0% and -3.5%
same,Percentage Body Weight Change post Dosing,"[2]; 103 mg/kg (30mg/kg AZD4320), day 58 post implant",-0.9662% and -1.754% and -5.213% and -4.464% and -0.9434% and -5.5%
same,Percentage Body Weight Change post Dosing,"[2]; 103 mg/kg (30mg/kg AZD4320), day 63 post implant",0.4831% and 1.842% and -3.791% and -2.232% and -1.887% and -2%
same,Percentage Body Weight Change post Dosing,"[2]; 103 mg/kg (30mg/kg AZD4320), day 66 post implant",-1.932% and -0.4386% and -4.2654% and -2.679% and -0.9434% and -2.5%
same,Percentage Body Weight Change post Dosing,"[2]; 103 mg/kg (30mg/kg AZD4320), day 70 post implant",-1.449% and 0.4386% and -3.318% and -1.786% and -0.9434% and -8%
same,Percentage Body Weight Change post Dosing,"[2]; 103 mg/kg (30mg/kg AZD4320), day 73 post implant",0.4831% and 1.316% and -1.896% and -4.018% and -2.83% and -4%
same,Percentage Body Weight Change post Dosing,"[2]; 103 mg/kg (30mg/kg AZD4320), day 77 post implant",0.4831% and 1.316% and 0% (2×) and -2.679% and -4%
same,Percentage Body Weight Change post Dosing,"[2]; 103 mg/kg (30mg/kg AZD4320), day 80 post implant",4.348% and 1.754% and 2.8436% and -1.786% and 0.4717% and -3%
same,Percentage Body Weight Change post Dosing,"[2]; 103 mg/kg (30mg/kg AZD4320), day 83 post implant",2.415% and 3.509% and 4.2654% and -2.232% and 0.4717% and -2%
same,tolerability in xenograft mice,"[2]; RS4;11 xenograft, all doses",well tolerated
